± gives the standard deviation of the averaged measurements.
System: ATP
Experiment: switch fluorescence ratio, 500 uM ATP over buffer (Cy3 cluster intensity, sum of 5 cycles each) (fold (ratio)); higher = stronger signal-on switching upon ATP binding; sequences stand for … in TCGTCGGCAGCGTCAGATGTGTATAAGAGACAGTTTTTTTTTTTTTTTTTTTTTTTTT…TC
Details: aptamer strand: ATP DNA aptamer (quencher-CACCTGGGGGAGTATTGCGGAGGAAGG + anchor), 100 nM annealed; ATP concentration: 500 uM
Outline: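 Per cluster, summed Cy3 intensity from the target cycles was divided by that from the buffer cycles to give the fluorescence ratio, then averaged per switch-domain sequence. Clusters outside 100-1000 RFU were excluded. The Cy3-labelled switching-strand clusters, on a modified Illumina MiSeq flow-cell, were annealed to 100 nM quencher-labelled ATP aptamer and imaged in selection buffer, then after 15 min with 500 uM ATP at 22 °C, for five cycles with NaOH stripping and re-annealing between them.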
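Note: ATP exposure 15 min at 22 °C before imaging.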

TTTCTGTCGG
switch fluorescence ratio: 1.02 ± 0.032

TTTCTGTTGC
switch fluorescence ratio: 0.9887 ± 0.0047

TTTCTGTTGG
switch fluorescence ratio: 0.992 ± 0.035

TTTCTTCGGG
switch fluorescence ratio: 1 ± 0.019

TTTCTTGCAC
switch fluorescence ratio: 1.067 ± 0.0095

TTTCTTGCCA
switch fluorescence ratio: 1.02 ± 0.048

TTTCTTGGCT
switch fluorescence ratio: 1.2 ± 0.38

TTTCTTTCGG
switch fluorescence ratio: 1.03 ± 0.048

TTTCTTTT
switch fluorescence ratio: 1.042 ± 0.0027

TTTCTTTTAT
switch fluorescence ratio: 0.998 ± 0.016

TTTCTTTTCT
switch fluorescence ratio: 1.02 ± 0.032

TTTCTTTTTA
switch fluorescence ratio: 0.9791 ± 0.0032

TTTGAAAAGC
switch fluorescence ratio: 0.986 ± 0.018

TTTGAACGGG
switch fluorescence ratio: 1.01 ± 0.036

TTTGAAGCAT
switch fluorescence ratio: 1 ± 0.061

TTTGAAGGG
switch fluorescence ratio: 0.965 ± 0.012

TTTGAAGTCT
switch fluorescence ratio: 0.978 ± 0.09

TTTGAAGTTG
switch fluorescence ratio: 0.992 ± 0.029

TTTGAATAGA
switch fluorescence ratio: 0.992 ± 0.019

TTTGACAAAC
switch fluorescence ratio: 1.1 ± 0.073

TTTGACCTGT
switch fluorescence ratio: 0.991 ± 0.013

TTTGACGACA
switch fluorescence ratio: 1.11 ± 0.1

TTTGACGTTG
switch fluorescence ratio: 1.02 ± 0.047

TTTGAGAAGG
switch fluorescence ratio: 0.948 ± 0.022

TTTGAGACGG
switch fluorescence ratio: 0.99 ± 0.019

TTTGAGCTTG
switch fluorescence ratio: 0.981 ± 0.017

TTTGAGCTTT
switch fluorescence ratio: 1.02 ± 0.018

TTTGAGGGA
switch fluorescence ratio: 0.9945 ± 0.0052

TTTGAGGGGT
switch fluorescence ratio: 1.03 ± 0.065

TTTGAGTAGG
switch fluorescence ratio: 0.992 ± 0.038

TTTGAGTATA
switch fluorescence ratio: 0.992 ± 0.031

TTTGAGTGTA
switch fluorescence ratio: 0.969 ± 0.05

TTTGATAACG
switch fluorescence ratio: 0.987 ± 0.012

TTTGATAAGT
switch fluorescence ratio: 1.06 ± 0.07

TTTGATACCT
switch fluorescence ratio: 1.266 ± 0.0022

TTTGATACGC
switch fluorescence ratio: 1.04 ± 0.031

TTTGATAGAT
switch fluorescence ratio: 0.977 ± 0.012

TTTGATCAGC
switch fluorescence ratio: 0.983 ± 0.031

TTTGATCGCA
switch fluorescence ratio: 0.999 ± 0.025

TTTGATGGGC
switch fluorescence ratio: 0.9911 ± 0.0075

TTTGATGTAG
switch fluorescence ratio: 1.01 ± 0.011

TTTGATTCTT
switch fluorescence ratio: 1.004 ± 0.0033

TTTGATTGAG
switch fluorescence ratio: 0.953 ± 0.012

TTTGATTGTG
switch fluorescence ratio: 1.03 ± 0.029

TTTGATTTGG
switch fluorescence ratio: 0.921 ± 0.022

TTTGCAAACA
switch fluorescence ratio: 1 ± 0.061

TTTGCACTTT
switch fluorescence ratio: 1 ± 0.046

TTTGCAGCC
switch fluorescence ratio: 1.05 ± 0.066

TTTGCAGCGC
switch fluorescence ratio: 0.998 ± 0.021

TTTGCAGGGA
switch fluorescence ratio: 1.06 ± 0.1

TTTGCAGT
switch fluorescence ratio: 1.1 ± 0.12

TTTGCATATA
switch fluorescence ratio: 1.09 ± 0.11

TTTGCATGAA
switch fluorescence ratio: 0.992 ± 0.011

TTTGCATGTA
switch fluorescence ratio: 1.02 ± 0.027

TTTGCCCCTT
switch fluorescence ratio: 1.02 ± 0.03

TTTGCCTGCT
switch fluorescence ratio: 1.01 ± 0.043

TTTGCGAGCG
switch fluorescence ratio: 1.01 ± 0.023

TTTGCGGTGG
switch fluorescence ratio: 1.01 ± 0.075

TTTGCGTAAG
switch fluorescence ratio: 1.02 ± 0.033

TTTGCGTGCA
switch fluorescence ratio: 0.975 ± 0.011

TTTGCGTGTT
switch fluorescence ratio: 1.019 ± 0.0086

TTTGCTAAA
switch fluorescence ratio: 1.01 ± 0.046

TTTGCTCACG
switch fluorescence ratio: 1.01 ± 0.029

TTTGCTCTTA
switch fluorescence ratio: 1 ± 0.056

TTTGCTGCAG
switch fluorescence ratio: 1.003 ± 0.003

TTTGCTGGTG
switch fluorescence ratio: 1.1 ± 0.026

TTTGCTTA
switch fluorescence ratio: 0.995 ± 0.012

TTTGCTTATG
switch fluorescence ratio: 0.9924 ± 0.0045

TTTGGAAAGC
switch fluorescence ratio: 1.04 ± 0.019

TTTGGAAGTT
switch fluorescence ratio: 0.9817 ± 0.0035

TTTGGAATAC
switch fluorescence ratio: 2.92 ± 1

TTTGGAATCA
switch fluorescence ratio: 1.008 ± 0.0098

TTTGGAATGG
switch fluorescence ratio: 0.991 ± 0.054

TTTGGACGGC
switch fluorescence ratio: 1.04 ± 0.065

TTTGGACGGG
switch fluorescence ratio: 0.995 ± 0.033

TTTGGAGATA
switch fluorescence ratio: 1.03 ± 0.032

From the supplement of paper PMC10126150
